# Values of other authors, collected in paper PMC12655228.
# Target: HER2 (Homo sapiens) (UniProt P04626)
substance,measurement,value
Trastuzumab,Kd,0.1 nM
